Common to all, as to assay: stopped-flow fluorescence (koff/kon); 10 mM Mg2+; 10 mM MES pH 6.5, 150 mM NaCl, 10 mM MgCl2, 0.05% Tween-20, 25 C; NMR: 10 mM Tris-d11, 150 mM NaCl, 10 mM MgCl2, 1 mM NaN3, 5% D2O (NOE at 25 C)
Common to all, as to conditions: protein: recombinant; tags: extra N-terminal Gly; chain copies: 2; label: 5' Alexa Fluor 488; hairpin (self-annealing, 11 bp stem, CCCC loop)

The target of data set [1] is T1, 285bZIP E295G/E299G (human, UniProt P16220-1 285-339, C300S;C310S;C337S;E295G;E299G).
T1 sequence: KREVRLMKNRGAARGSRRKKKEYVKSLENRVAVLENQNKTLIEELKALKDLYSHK

The target in data set [2] is T2, 285bZIP M291G (human, UniProt P16220-1 285-339, C300S;C310S;C337S;M291G).
T2 sequence: T1 sequence with M7G, G11E, G15E

For data set [3], the target named is T3, 285bZIP K309G (human, UniProt P16220-1 285-339, C300S;C310S;C337S;K309G).
T3 sequence: T1 sequence with G11E, G15E, K25G

Data set [4] deals with T4, 285bZIP E306A (human, UniProt P16220-1 285-339, C300S;C310S;C337S;E306A).
T4 sequence: T1 sequence with G11E, G15E, E22A

The target of data set [5] is T5, 285bZIP E299A/E306A (human, UniProt P16220-1 285-339, C300S;C310S;C337S;E299A;E306A).
T5 sequence: T1 sequence with G11E, G15A, E22A

In data set [6] the target is T6, 285bZIP E299G/E306G (human, UniProt P16220-1 285-339, C300S;C310S;C337S;E299G;E306G).
T6 sequence: T1 sequence with G11E, E22G

For data set [7], the target named is T7, 285bZIP E287A (human, UniProt P16220-1 285-339, C300S;C310S;C337S;E287A).
T7 sequence: T1 sequence with E3A, G11E, G15E

The target in data set [8] is T8, 285bZIP V288G (human, UniProt P16220-1 285-339, C300S;C310S;C337S;V288G).
T8 sequence: T1 sequence with V4G, G11E, G15E

Data set [9] deals with T9, 285bZIP V288A (human, UniProt P16220-1 285-339, C300S;C310S;C337S;V288A).
T9 sequence: T1 sequence with V4A, G11E, G15E

The target of data set [10] is T10, 285bZIP E306G (human, UniProt P16220-1 285-339, C300S;C310S;C337S;E306G).
T10 sequence: T1 sequence with G11E, G15E, E22G

Substitutions are numbered along the chain they refer to.

B1: AlexaFluor488-CREh (structured_DNA)
DNA: CCTGACGTCAGCCCCCTGACGTCAGG
For the molecule B1, the Kd worked out at 170 ± 50 nM in data set [1]; 5.2 ± 0.7 nM in data set [2]; 26 ± 2 nM in data set [3]; 0.139 ± 0.012 nM in [4]; 0.0415 ± 0.0008 nM in data set [5]; 54 ± 4 nM in data set [6]. The Kd was 1.89 ± 0.11 nM in [7], 2.77 ± 0.16 nM in data set [8], 0.46 ± 0.05 nM in [9] and 3.9 ± 0.2 nM in data set [10].

The term Kd denotes the free concentration of one partner at which half of the binding sites on the other are occupied at equilibrium, for simple one-to-one binding.

Source of the values: article PMC11514473, “The transition state for coupled folding and binding of a disordered DNA binding domain resembles the unbound state” (Nucleic Acids Research, 2024).
